To fix the notation:
B1: DLC1 (parent)
chain: KRSWEEHVTHWMGQPFNSDDRNTA
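Note: lentivirally expressed fusions sorted by FACS into six bins by GFP to DsRed ratio, PSI derived from sequencing read proportions per bin multiplied by bin number.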

The variants in this data set derive from B1. The data set can be described thus: protein stability index of a GFP-peptide fusion (GPS, HEK-293T) (PSI 1-6); higher = more stable. Conditions: c terminus: a fixed tail appended.
As to KRSWEEGVTHWMGQPFNSDDRNTA, the protein stability index was 4.29.
Take KRSWEERVTHWMGQPFNSDDRNTA: the protein stability index worked out at 3.08.
As for KRSWEEVVTHWMGQPFNSDDRNTA, the protein stability index is 3.18.
Turning to KRSWEEKVTHWMGQPFNSDDRNTA, the protein stability index was determined as 3.44.
Take KRSWEEMVTHWMGQPFNSDDRNTA: the protein stability index worked out at 2.84.
For KRSWEEPVTHWMGQPFNSDDRNTA, the protein stability index came to 4.2.
In the case of KRSWEEYVTHWMGQPFNSDDRNTA it was 2.29; in that of KRSWEEIVTHWMGQPFNSDDRNTA, 3.75; in that of KRSWEEWVTHWMGQPFNSDDRNTA, 2.82.
In the case of KRSWEECVTHWMGQPFNSDDRNTA, the protein stability index came to 3.33.
On to KRSWEETVTHWMGQPFNSDDRNTA, for which the protein stability index is 3.21.
On to KRSWEEAVTHWMGQPFNSDDRNTA, for which the protein stability index is 3.54.
KRSWEENVTHWMGQPFNSDDRNTA: the protein stability index amounted to 4.35.
As to KRSWEEDVTHWMGQPFNSDDRNTA, the protein stability index turned out to be 3.68.
In the case of KRSWEEEVTHWMGQPFNSDDRNTA it was 3.1; in that of KRSWEESVTHWMGQPFNSDDRNTA, 3.71.
Under KRSWEEFVTHWMGQPFNSDDRNTA stands 2.84.
With KRSWEEQVTHWMGQPFNSDDRNTA, the protein stability index was 2.75.
Take KRSWEELVTHWMGQPFNSDDRNTA: the protein stability index was 2.64.
As to KRSWKEHVTHWMGQPFNSDDRNTA, the protein stability index was 2.58.
On to KRSWTEHVTHWMGQPFNSDDRNTA, for which the protein stability index came out at 2.4.
KRSWYEHVTHWMGQPFNSDDRNTA: the protein stability index amounted to 3.04.
In the case of KRSWPEHVTHWMGQPFNSDDRNTA it was 3.95.
With KRSWVEHVTHWMGQPFNSDDRNTA, the protein stability index amounted to 2.65.
In the case of KRSWGEHVTHWMGQPFNSDDRNTA it was 3.07; in that of KRSWMEHVTHWMGQPFNSDDRNTA, 3.13.
Under KRSWHEHVTHWMGQPFNSDDRNTA stands 3.56; under KRSWAEHVTHWMGQPFNSDDRNTA, 2.55; under KRSWSEHVTHWMGQPFNSDDRNTA, 3.41.
Regarding KRSWWEHVTHWMGQPFNSDDRNTA, the protein stability index came out at 3.37.
Take KRSWDEHVTHWMGQPFNSDDRNTA: the protein stability index is 3.94.
With KRSWLEHVTHWMGQPFNSDDRNTA, the protein stability index turned out to be 2.47.
For KRSWFEHVTHWMGQPFNSDDRNTA, the protein stability index turned out to be 3.16.
In the case of KRSWCEHVTHWMGQPFNSDDRNTA it was 2.17; in that of KRSWREHVTHWMGQPFNSDDRNTA, 2.64; in that of KRSWQEHVTHWMGQPFNSDDRNTA, 3.1.
Under KRSWNEHVTHWMGQPFNSDDRNTA stands 3.5; under KRSWIEHVTHWMGQPFNSDDRNTA, 1.92.
Regarding KRLWEEHVTHWMGQPFNSDDRNTA, the protein stability index worked out at 3.37.
Take KRNWEEHVTHWMGQPFNSDDRNTA: the protein stability index turned out to be 3.81.
As to KRDWEEHVTHWMGQPFNSDDRNTA, the protein stability index came out at 4.33.
Turning to KRKWEEHVTHWMGQPFNSDDRNTA, the protein stability index was 3.47.
With KRMWEEHVTHWMGQPFNSDDRNTA, the protein stability index is 3.35.
In the case of KRCWEEHVTHWMGQPFNSDDRNTA it was 2.24; in that of KRIWEEHVTHWMGQPFNSDDRNTA, 3.78.
Regarding KRQWEEHVTHWMGQPFNSDDRNTA, the protein stability index came out at 3.54.
Turning to KRGWEEHVTHWMGQPFNSDDRNTA, the protein stability index worked out at 3.44.
In the case of KRTWEEHVTHWMGQPFNSDDRNTA it was 2.13.
KRAWEEHVTHWMGQPFNSDDRNTA: the protein stability index turned out to be 3.44.
With KRRWEEHVTHWMGQPFNSDDRNTA, the protein stability index stood at 3.34.
In the case of KRYWEEHVTHWMGQPFNSDDRNTA it was 3.01; in that of KRFWEEHVTHWMGQPFNSDDRNTA, 3.18.
Take KRHWEEHVTHWMGQPFNSDDRNTA: the protein stability index stood at 3.72.
Under KRPWEEHVTHWMGQPFNSDDRNTA stands 3.6; under KRWWEEHVTHWMGQPFNSDDRNTA, 3; under KRVWEEHVTHWMGQPFNSDDRNTA, 3.94.
Under KREWEEHVTHWMGQPFNSDDRNTA stands 4.41; under KRSWECHVTHWMGQPFNSDDRNTA, 2.87; under KRSWESHVTHWMGQPFNSDDRNTA, 3.24.
In the case of KRSWEHHVTHWMGQPFNSDDRNTA, the protein stability index was found to be 3.36.
Consider KRSWEAHVTHWMGQPFNSDDRNTA, for which the protein stability index was found to be 2.72.
Under KRSWEGHVTHWMGQPFNSDDRNTA stands 3.48; under KRSWEMHVTHWMGQPFNSDDRNTA, 2.66; under KRSWEVHVTHWMGQPFNSDDRNTA, 2.53.
Under KRSWETHVTHWMGQPFNSDDRNTA stands 3.15; under KRSWEKHVTHWMGQPFNSDDRNTA, 3.32; under KRSWEWHVTHWMGQPFNSDDRNTA, 2.67.
With KRSWEDHVTHWMGQPFNSDDRNTA, the protein stability index stood at 3.06.
On to KRSWERHVTHWMGQPFNSDDRNTA, for which the protein stability index turned out to be 3.46.
In the case of KRSWEFHVTHWMGQPFNSDDRNTA it was 2.27; in that of KRSWEIHVTHWMGQPFNSDDRNTA, 2.44.
Regarding KRSWEYHVTHWMGQPFNSDDRNTA, the protein stability index came out at 2.31.
For the variant KRSWEPHVTHWMGQPFNSDDRNTA, the protein stability index is 3.46.
On to KRSWEQHVTHWMGQPFNSDDRNTA, for which the protein stability index was found to be 3.27.
With KRSWELHVTHWMGQPFNSDDRNTA, the protein stability index was found to be 2.58.
KRSWENHVTHWMGQPFNSDDRNTA: the protein stability index amounted to 3.98.
In the case of KRSWEEHYTHWMGQPFNSDDRNTA it was 3.99; in that of KRSWEEHHTHWMGQPFNSDDRNTA, 4.04; in that of KRSWEEHPTHWMGQPFNSDDRNTA, 4.21.
As to KRSWEEHDTHWMGQPFNSDDRNTA, the protein stability index is 4.42.
For KRSWEEHQTHWMGQPFNSDDRNTA, the protein stability index worked out at 3.86.
Under KRSWEEHMTHWMGQPFNSDDRNTA stands 3.66; under KRSWEEHRTHWMGQPFNSDDRNTA, 4.22.
Under KRSWEEHWTHWMGQPFNSDDRNTA stands 3.39; under KRSWEEHFTHWMGQPFNSDDRNTA, 3.34; under KRSWEEHSTHWMGQPFNSDDRNTA, 3.88.
Take KRSWEEHCTHWMGQPFNSDDRNTA: the protein stability index is 3.98.
In the case of KRSWEEHNTHWMGQPFNSDDRNTA it was 4.13; in that of KRSWEEHATHWMGQPFNSDDRNTA, 4.13.
In the case of KRSWEEHKTHWMGQPFNSDDRNTA, the protein stability index is 4.26.
As to KRSWEEHETHWMGQPFNSDDRNTA, the protein stability index stood at 4.24.
Under KRSWEEHTTHWMGQPFNSDDRNTA stands 3.84.
For the variant KRSWEEHITHWMGQPFNSDDRNTA, the protein stability index turned out to be 2.81.
Under KRSWEEHGTHWMGQPFNSDDRNTA stands 4.02.
